Measurements as given in patent US20230050846A1, “TREATMENT OF HEPATIC AND CARDIOVASCULAR DISORDERS” (LIFESEARCH, priority 2019, published 2023).
Square brackets hold non-standard residues; d marks the D form. Ends that are not written are not given here. * marks the point of attachment. Biotin = O=C1N[C@H]2[C@H](CS[C@H]2CCCCC(=O)*)N1; Palmitoyl = CCCCCCCCCCCCCCCC(=O)*; AEEA = NCCOCCOCC(=O)O

B1: Formula (II)-Biotin: CH3CO-[SEQ ID NO: 1]-K-[palmitoyl]-AEEAc-K-[biotinyl]-NH2 (peptide)
peptide: Ac-RGAGSIREAGGAFGKREQAEEERYFRAQSREK(Palmitoyl)[AEEA]K(Biotin)-NH2
SMILES: CCCCCCCCCCCCCCCC(=O)NCCCC[C@H](NC(=O)[C@H](CCC(=O)O)NC(=O)[C@H](CCCNC(=N)N)NC(=O)[C@H](CO)NC(=O)[C@H](CCC(N)=O)NC(=O)[C@H](C)NC(=O)[C@H](CCCNC(=N)N)NC(=O)[C@H](Cc1ccccc1)NC(=O)[C@H](Cc1ccc(O)cc1)NC(=O)[C@H](CCCNC(=N)N)NC(=O)[C@H](CCC(=O)O)NC(=O)[C@H](CCC(=O)O)NC(=O)[C@H](CCC(=O)O)NC(=O)[C@H](C)NC(=O)[C@H](CCC(N)=O)NC(=O)[C@H](CCC(=O)O)NC(=O)[C@H](CCCNC(=N)N)NC(=O)[C@H](CCCCN)NC(=O)CNC(=O)[C@H](Cc1ccccc1)NC(=O)[C@H](C)NC(=O)CNC(=O)CNC(=O)[C@H](C)NC(=O)[C@H](CCC(=O)O)NC(=O)[C@H](CCCNC(=N)N)NC(=O)[C@@H](NC(=O)[C@H](CO)NC(=O)CNC(=O)[C@H](C)NC(=O)CNC(=O)[C@H](CCCNC(=N)N)NC(C)=O)[C@@H](C)CC)C(=O)NCCOCCOCC(=O)N[C@@H](CCCCNC(=O)CCCC[C@@H]1SC[C@@H]2NC(=O)N[C@@H]21)C(N)=O

Columns and labels:
[1] = biological target: Human F1Fo-ATPase purified from HepG2 cells (human); test: SPR (BIAcore T200), His-tagged peptide immobilised on NTA chip, purified F1Fo-ATPase as analyte, single-cycle kinetics
[2] = biological target: Human F1Fo-ATPase purified from HepG2 cells (human); test: SPR (BIAcore T200), single-cycle kinetics; peptide immobilised as ligand on NTA chip, F1Fo-ATPase as analyte injected at 31.25, 62.5, 125, 250 and 500 nM
[3] = biological target: Human F1Fo-ATPase purified from HepG2 cells (human); test: SPR (BIAcore T200), biotinylated peptide immobilised on streptavidin chip, purified F1Fo-ATPase as analyte, single-cycle kinetics
[4] = biological target: Human F1Fo-ATPase purified from HepG2 cells (human); test: SPR (BIAcore T200), single-cycle kinetics; peptide immobilised as ligand on streptavidin chip, F1Fo-ATPase as analyte injected at 31.25, 62.5, 125, 250 and 500 nM

Row | Binder | Kd [1] [nM] | koff [2] [s⁻¹] | Kd [3] [nM] | Kd [4] [nM] | koff [4] [s⁻¹]
1 | Ac-RGAGSIREAGGAFGKREQAEEERYFRAQSREHHHHHH [Formula (I)-His-tag: CH3CO-[SEQ ID NO: 1]-HHHHHH] | 19 | 0.000643 |  |  | 
2 | B1 |  |  | 4.45 | 3 | 6.85e-05
